The test system of this data set is Escherichia coli TOP10. The experiment in a line: shrunken log2 fold change of peptide-encoding DNA abundance (4.5 h post-induction vs induction); higher = less antimicrobial activity (less host growth inhibition). To be noted: time post-induction: 4.5 h; library: site-saturation at positions 5, 18, 19, 20.
In the case of RRIRQRPPRLPRPRPRPSFSPRP, the “shrunken log2 fold change” value was -0.443.

In the case of RRIRRRPPRLPRPRPRPLYNPRP, the “shrunken log2 fold change” value was -0.295.

In the case of RRIRPRPPRLPRPRPRPFEVPRP, the “shrunken log2 fold change” value was 0.0802.

Consider RRIRMRPPRLPRPRPRPTQKPRP, for which the “shrunken log2 fold change” value was determined as 0.168.

As for RRIRERPPRLPRPRPRPLSYPRP, the “shrunken log2 fold change” value was -0.193.

For the sequence RRIRTRPPRLPRPRPRPAPAPRP, the “shrunken log2 fold change” value is 0.463.

As for RRIRVRPPRLPRPRPRPNQDPRP, the “shrunken log2 fold change” value was -0.116.

As to RRIRVRPPRLPRPRPRPTMQPRP, the “shrunken log2 fold change” value came out at 0.158.

With RRIRERPPRLPRPRPRPWHWPRP, the “shrunken log2 fold change” value is -0.0299.

Turning to RRIRFRPPRLPRPRPRPKHAPRP, the “shrunken log2 fold change” value came to 0.416.

For the sequence RRIRFRPPRLPRPRPRPEELPRP, the “shrunken log2 fold change” value was found to be 0.0201.

Consider RRIRKRPPRLPRPRPRPQAMPRP, for which the “shrunken log2 fold change” value turned out to be 0.146.

In the case of RRIRKRPPRLPRPRPRPCGNPRP, the “shrunken log2 fold change” value was 0.0169.

On to RRIRNRPPRLPRPRPRPLMPPRP, for which the “shrunken log2 fold change” value is -0.173.

Turning to RRIRLRPPRLPRPRPRPKHYPRP, the “shrunken log2 fold change” value was -0.406.

On to RRIRDRPPRLPRPRPRPYPVPRP, for which the “shrunken log2 fold change” value was found to be 0.00705.

Take RRIRHRPPRLPRPRPRPMCYPRP: the “shrunken log2 fold change” value amounted to 0.118.

With RRIRPRPPRLPRPRPRPSCTPRP, the “shrunken log2 fold change” value was -0.221.

For RRIRRRPPRLPRPRPRPAIGPRP, the “shrunken log2 fold change” value was 0.136.

As to RRIRQRPPRLPRPRPRPMQPPRP, the “shrunken log2 fold change” value was 0.0113.

As for RRIRPRPPRLPRPRPRPDNTPRP, the “shrunken log2 fold change” value was -0.373.

Take RRIRKRPPRLPRPRPRPCHKPRP: the “shrunken log2 fold change” value was 0.0108.

In the case of RRIRERPPRLPRPRPRPTEDPRP, the “shrunken log2 fold change” value is -0.317.

For RRIRTRPPRLPRPRPRPEVLPRP, the “shrunken log2 fold change” value was -0.0153.

Take RRIRGRPPRLPRPRPRPYFNPRP: the “shrunken log2 fold change” value is -0.439.

With RRIRLRPPRLPRPRPRPTLKPRP, the “shrunken log2 fold change” value was -0.307.

With RRIRFRPPRLPRPRPRPHVTPRP, the “shrunken log2 fold change” value was -0.211.

In the case of RRIRDRPPRLPRPRPRPPIWPRP, the “shrunken log2 fold change” value is 0.305.

As for RRIRWRPPRLPRPRPRPNRNPRP, the “shrunken log2 fold change” value was -0.602.

With RRIRYRPPRLPRPRPRPLKTPRP, the “shrunken log2 fold change” value is 0.0308.

For the sequence RRIRFRPPRLPRPRPRPKAVPRP, the “shrunken log2 fold change” value is -0.00146.

With RRIRQRPPRLPRPRPRPQKEPRP, the “shrunken log2 fold change” value was -0.00507.

Regarding RRIRWRPPRLPRPRPRPNIIPRP, the “shrunken log2 fold change” value was -0.486.

RRIRYRPPRLPRPRPRPWRHPRP: the “shrunken log2 fold change” value was -0.116.

Turning to RRIRNRPPRLPRPRPRPADWPRP, the “shrunken log2 fold change” value turned out to be 0.044.

As to RRIRRRPPRLPRPRPRPNENPRP, the “shrunken log2 fold change” value was 0.256.

Consider RRIRYRPPRLPRPRPRPIMLPRP, for which the “shrunken log2 fold change” value is -3.12.

On to RRIRMRPPRLPRPRPRPSSNPRP, for which the “shrunken log2 fold change” value is -0.142.

For the sequence RRIRRRPPRLPRPRPRPISAPRP, the “shrunken log2 fold change” value is 0.122.

In the case of RRIRYRPPRLPRPRPRPAINPRP, the “shrunken log2 fold change” value is -0.051.

As for RRIRYRPPRLPRPRPRPFDMPRP, the “shrunken log2 fold change” value was -0.195.

Take RRIRTRPPRLPRPRPRPEKNPRP: the “shrunken log2 fold change” value came out at 0.0495.

Take RRIRCRPPRLPRPRPRPSPNPRP: the “shrunken log2 fold change” value was -0.102.

In the case of RRIRDRPPRLPRPRPRPWVAPRP, the “shrunken log2 fold change” value is -0.0114.

As for RRIRCRPPRLPRPRPRPVTDPRP, the “shrunken log2 fold change” value was 0.133.

As to RRIRYRPPRLPRPRPRPTMGPRP, the “shrunken log2 fold change” value was determined as 0.0568.

For RRIRDRPPRLPRPRPRPIHGPRP, the “shrunken log2 fold change” value was -0.0134.

Regarding RRIRKRPPRLPRPRPRPNWLPRP, the “shrunken log2 fold change” value stood at 0.246.

For the sequence RRIRRRPPRLPRPRPRPDRVPRP, the “shrunken log2 fold change” value is -0.203.

With RRIRYRPPRLPRPRPRPSVRPRP, the “shrunken log2 fold change” value was -0.301.

The values are drawn from the supplement of paper PMC9112550, “Optimization of the antimicrobial peptide Bac7 by deep mutational scanning” (BMC Biology, 2022).
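Also: peptides expressed intracellularly from a pBAD plasmid library in pooled LB shake-flask culture, induced with 0.3% L-arabinose, DNA abundance read by NGS, three biological replicates, DESeq2 with apeglm shrinkage.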
